Data on one molecule can be found in patent US20230242658A1 (published 2023).

Assay [1] deals with T1, human PD-L1 on CHO-K1 cells (human, UniProt Q9NZQ7 19-290).
T1 construct: whole, on cells; also called CHO-K1/hPDL1; CHO-K1/hPD-L1
Put plainly: FACS, CHO-K1/hPD-L1 cells; PR000701 is the weaker comparator.

Assay [2] addresses T2, human 4-1BB on CHO-K1 cells (human, UniProt Q07011 24-255).
T2 construct: whole, on cells; also called CHO-K1/hu 4-1BB; CHO-K1/hu4-1BB
In words: FACS, CHO-K1/hu4-1BB cells; PR000701 is the weaker comparator.

T2 sequence (Q07011 24-255): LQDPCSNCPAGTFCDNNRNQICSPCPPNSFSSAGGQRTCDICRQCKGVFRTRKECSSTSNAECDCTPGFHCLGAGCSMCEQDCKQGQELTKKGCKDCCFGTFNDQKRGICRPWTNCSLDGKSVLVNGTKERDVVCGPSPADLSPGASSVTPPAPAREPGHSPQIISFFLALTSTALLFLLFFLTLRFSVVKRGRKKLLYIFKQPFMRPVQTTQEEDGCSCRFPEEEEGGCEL
T1 sequence (Q9NZQ7 19-290): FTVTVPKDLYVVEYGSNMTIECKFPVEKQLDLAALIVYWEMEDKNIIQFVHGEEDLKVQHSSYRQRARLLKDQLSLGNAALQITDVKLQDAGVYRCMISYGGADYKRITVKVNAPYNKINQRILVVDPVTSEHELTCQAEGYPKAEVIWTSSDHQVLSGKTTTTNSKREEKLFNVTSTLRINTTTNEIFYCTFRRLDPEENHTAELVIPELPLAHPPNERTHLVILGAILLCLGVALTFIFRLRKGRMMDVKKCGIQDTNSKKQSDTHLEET

B1: PR000701 (bispecific antibody, human IgG4 S228P, kappa)
chain 1: not shown
chain 2: EVQLVESGGGLVQPGGSLRLSCAASGFTFSSYWMSWVRQAPGKGLEWVANIKQEGSEKYYVDSVKGRFTISRDNAKNSLYLQMNSLRAEDTAVYYCARDRAVAGAFDIWGQGTMVTVSSASTKGPSVFPLAPSSKSTSGGTAALGCLVKDYFPEPVTVSWNSGALTSGVHTFPAVLQSSGLYSLSSVVTVPSSSLGTQTYICNVNHKPSNTKVDKKVEPKSC
chain 3: not shown
notes: PD-L1x4-1BB FIT-Ig: Fab A PR000265, Fab B PR000197, human IgG4
For B1, the binding result in assay [1] and in assay [2] was “binds” in each case.
